Laboratory results as given in paper PMC10333338, “Mechanism of ATP hydrolysis dependent rotation of bacterial ATP synthase” (Nature Communications, 2023).

Target: T1, α subunit of the F1 domain of FoF1 ATP synthase from Geobacillus stearothermophilus (Bacillus PS3 sp.) (G. stearothermophilus (Bacillus PS3 sp.), UniProt P09219 1-502)
T1 construct: ATP synthase subunit alpha, Bacillus PS3 sp; (G. stearothermophilus); subunit of the ΔεCT-FoF1 complex; Three copies stand in the F1 domain (α3β3γ); The complex was purified on Ni-NTA; also called αE; αT
Test: cryo-EM structure; purified ΔεCT-FoF1 in DDM, 9 µM enzyme; 26 mM ATP-Mg, 20 s at 25 °C (high [ATP], nucleotide-depleted enzyme) or 25 µM ATP with pyruvate kinase and PEP, 60 s at 25 °C (low [ATP]); flash frozen; focused refinement on the F1 domain
Details: both partners purified

T1 sequence (P09219 whole entry, the tested form may be a part): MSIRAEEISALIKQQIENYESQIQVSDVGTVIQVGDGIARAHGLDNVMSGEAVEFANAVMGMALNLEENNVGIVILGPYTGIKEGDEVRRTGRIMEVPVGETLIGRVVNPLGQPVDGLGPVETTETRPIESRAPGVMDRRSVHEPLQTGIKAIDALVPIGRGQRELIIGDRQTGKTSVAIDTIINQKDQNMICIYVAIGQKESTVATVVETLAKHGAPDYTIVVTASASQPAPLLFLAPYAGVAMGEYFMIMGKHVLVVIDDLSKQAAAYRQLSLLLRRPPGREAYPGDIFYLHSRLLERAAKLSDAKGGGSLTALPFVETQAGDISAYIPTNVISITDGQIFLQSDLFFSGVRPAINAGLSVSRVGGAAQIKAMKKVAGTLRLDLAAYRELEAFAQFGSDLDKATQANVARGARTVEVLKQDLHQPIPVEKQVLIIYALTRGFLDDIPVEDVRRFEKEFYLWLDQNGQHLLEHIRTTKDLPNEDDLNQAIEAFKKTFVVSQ

B1: γ subunit of the F1 domain of FoF1 ATP synthase from Geobacillus stearothermophilus (Bacillus PS3 sp.) (natural protein, G. stearothermophilus (Bacillus PS3 sp.), UniProt P09222 5-286, looked up)
chain: ASLRDIKTRINATKKTSQITKAMEMVLTSKLNRAEKREIVRPYMEKIQEVVANVALAARASHPMLVSRPVKKTGYLVITSDRGLAGAYNSNVLRLVYQTIQKRHASPDEYAIIVIGRVGLSFFRKRNMPVILDITRLPDQPSFADIKEIARKTVGLFADGTFDELYMYYNHYVSAIQQEVTERKLLPLTDLAENKQRTVYEFEPSQEEILDVLLPQYAESLIYGALLDAKASEHAARMTAMKNATDNANELIRTLTLSYNRARQAAITQEITEIVAGANALQ
notes: ATP synthase gamma chain, Bacillus PS3 sp; (G. stearothermophilus); subunit of the ΔεCT-FoF1 complex; One copy in the centre of α3β3; also called γ-stalk; central γ subunit
B1: binds.
